Where two headings read alike, the source gives them in different places.
How the values were obtained:
Assay in all cases: EMSA
[1] = target: T1, C-terminal truncated DDX3X (1-582) (Homo sapiens, UniProt O00571)
[2] = target: T1, C-terminal truncated DDX3X (1-582); remark: listed apart in the source
[3] = target: T1, C-terminal truncated DDX3X (1-582); remark: listed apart in the source
[4] = target: T1, C-terminal truncated DDX3X (1-582); remark: listed apart in the source
[5] = target: T1, C-terminal truncated DDX3X (1-582); remark: listed apart in the source

B1: B:B (dsRNA)
RNA 1: UUUUUUUUUUUUUUUUUUUUGGCGGCCGCC
RNA 2: B1 RNA 1
Binder B1 has a Kd [1] of 114 ± 10 nM and a Kd [2] of 285 ± 18 nM.

B2: C (ssRNA)
RNA: UUUUUUUUUUUUUUUUUUUUGGUGGUUGUG
Work on B2 yielded a Kd [3] of 217 ± 60 nM and a Kd [4] of 298 ± 31 nM.

B3: A:A (dsRNA)
RNA 1: GGCGGCCGCC
RNA 2: GGCGGCCGCC
B3: no binding [5].

B4: D:E (dsRNA)
RNA 1: CUCAACUCAACCCUUCAUCUCAACUCAACCCUUCAU
RNA 2: AUGAAGGGUUGAGUUGAGAUGAAGGGUUGAGUUGAG
B4: no binding [5].

Source: article PMC8154130
